# Experiments:
# thrombin [1] = biological target: T1, thrombin (human, UniProt P00734;P00734 315-363;364-622); experiment: whispering gallery mode microsphere resonator
# thrombin [2] = biological target: T1, thrombin; experiment: whispering gallery mode microsphere resonator; remark: listed apart in the source
binder,measurement,setting,value
"CCAACCCAACGGTTGGTGTGGTTGG (structured_DNA, 5' amino) [anti-thrombin aptamer oligonucleotide]",Kd,thrombin [1],~1000 nM
"TATGAATTCAATCCGTCGAGCAGAGTT (ssDNA, 5' amino) [non-thrombin (non-aptamer) oligonucleotide]",binding result,thrombin [2],no binding

# Reference: PMC3926522
